The values below come from the Immune Epitope Database (IEDB).

Targets include HLA-A*02:02; HLA-A*02:03; HLA-A*02:06.
Assay in all cases: IEDB peptide-MHC binding, purified MHC/competitive/radioactivity; filed as Kd, often an IC50 or EC50 that approximates it; ≥ and ≤ were set here for values at or beyond the usual limits of such assays
The mark [1] stands for this setting: source organism: Vaccinia virus WR.
The mark [2] stands for this setting: source organism: SARS coronavirus Tor2.
Setting [3] is: source organism: Dengue virus 4 Philippines/H241/1956.
[4] abbreviates: source organism: Dengue virus 3 Martinique/1243/1999.

pKd: −log10 of the molar value.

One may read the pKd as the negative decadic logarithm of the Kd, by convention in mol/L.

Turning to AATKRYPGVM, the figures for the pKd with HLA-A*02:02 (setting [1]), in the experiment with HLA-A*02:03 (setting [1]) and with HLA-A*02:06 (setting [1]) were at most 4.70, at most 4.32 and at most 4.33, respectively.
As to AIAACAMLLV, the values for the pKd with HLA-A*02:02 (setting [2]), with HLA-A*02:03 (setting [2]) and in the experiment with HLA-A*02:06 (setting [2]) were 8.23, 7.50 and 7.11, respectively.
Take CLKNEGVSGL: the negative logarithm of the Kd (pKd) in the experiment with HLA-A*02:02 (setting [1]) was 6.90; with HLA-A*02:03 (setting [1]), 7.60; with HLA-A*02:06 (setting [1]), 4.85.
For DVDIPTFNSL, the results for the pKd with HLA-A*02:02 (setting [1]), with HLA-A*02:03 (setting [1]) and in the experiment with HLA-A*02:06 (setting [1]) were 5.74, 5.99 and 5.01, respectively.
In the same order, the values of EIDVSEVKTL are 5.31, 5.65 and at most 4.25.
On to ELMMTTIGIV, for which the pKd with HLA-A*02:03 (source organism: Dengue virus 2 Peru/IQT2913/1996) was 8.69.
EVMPEKRNVV: the figures for the pKd with HLA-A*02:02 (setting [1]), with HLA-A*02:03 (setting [1]) and with HLA-A*02:06 (setting [1]) were at most 4.69, 5.58 and 4.92, respectively.
With FANVISKIYT, the pKd is 5.11 in the experiment with HLA-A*02:02 (setting [1]), 5.27 with HLA-A*02:03 (setting [1]) and 5.78 in the experiment with HLA-A*02:06 (setting [1]).
Consider FMAYMIGQT, for which, in the experiment with HLA-A*02:03 (setting [3]), the pKd is 8.22.
For FMEEEIKAEM, the negative logarithm of the Kd (pKd) with HLA-A*02:02 (setting [1]) is 5.99; with HLA-A*02:03 (setting [1]), 5.51; with HLA-A*02:06 (setting [1]), 6.06.
FMRFFTLGSI: the pKd in the experiment with HLA-A*02:02 (setting [2]) is 7.62; with HLA-A*02:03 (setting [2]) it was 9.12; with HLA-A*02:06 (setting [2]) it was 6.71.
With FQFICNLLLL, the pKd with HLA-A*02:02 (setting [2]) is 8.10; with HLA-A*02:03 (setting [2]), 7.21; with HLA-A*02:06 (setting [2]), 9.06.
As for GALDVSASV, the pKd is 9.14 in the experiment with HLA-A*02:02 (setting [2]), 8.63 in the experiment with HLA-A*02:03 (setting [2]) and 8.64 with HLA-A*02:06 (setting [2]).
For GIADIRDKYM, the pKd was 9.16 with HLA-A*02:02 (setting [1]), 7.32 with HLA-A*02:03 (setting [1]) and 5.75 with HLA-A*02:06 (setting [1]).
As to GIYNCCESNI, the pKd is 7.17 in the experiment with HLA-A*02:02 (setting [1]), 6.85 with HLA-A*02:03 (setting [1]) and 6.54 in the experiment with HLA-A*02:06 (setting [1]).
As to GMAMTTVLSI, the pKd with HLA-A*02:03 (setting [3]) is 8.19.
GVLIAGIIL: the pKd is 5.28 with HLA-A*02:02 (setting [1]), 5.98 in the experiment with HLA-A*02:03 (setting [1]) and 6.02 with HLA-A*02:06 (setting [1]).
The matching figures for HLTENNLYI: 6.94, 4.84 and 5.74.
The matching figures for IASILSLETV: 6.63, 7.03 and 7.33.
Turning to IAVASGLLWV, the pKd with HLA-A*02:06 (setting [3]) was 7.97.
ILYYGANGST: the results for the pKd in the experiment with HLA-A*02:02 (setting [1]), with HLA-A*02:03 (setting [1]) and with HLA-A*02:06 (setting [1]) were 6.47, 7.41 and 5.74, respectively.
For the sequence IMQVFFGYFA, the pKd with HLA-A*02:02 (setting [2]) was 6.23; with HLA-A*02:03 (setting [2]) it was 5.80; with HLA-A*02:06 (setting [2]) it was 7.29.
Regarding IMSIGFEARI, the pKd with HLA-A*02:02 (setting [1]) was 6.15; in the experiment with HLA-A*02:03 (setting [1]), 5.82; in the experiment with HLA-A*02:06 (setting [1]), 5.80.
Consider IMSMMNITRL, for which the negative logarithm of the Kd (pKd) with HLA-A*02:02 (setting [1]) was 7.21; with HLA-A*02:03 (setting [1]) it was 6.97; with HLA-A*02:06 (setting [1]), 6.23.
Regarding KLFTIAMWLL, the results for the pKd in the experiment with HLA-A*02:02 (setting [2]), in the experiment with HLA-A*02:03 (setting [2]) and with HLA-A*02:06 (setting [2]) were 8.07, 6.15 and 6.58, respectively.
Consider KLKVDSDSGL, for which the negative-log Kd (pKd) with HLA-A*02:02 (setting [1]) is 7.13; with HLA-A*02:03 (setting [1]), 7.25; with HLA-A*02:06 (setting [1]) it was at most 5.00.
On to KLYIALCKVT, for which the pKd with HLA-A*02:02 (setting [1]) is 5.15; with HLA-A*02:03 (setting [1]), 6.20; with HLA-A*02:06 (setting [1]), 5.20.
For the sequence KTPVIVVPVI, the pKd was 5.04 in the experiment with HLA-A*02:02 (setting [1]), 5.21 in the experiment with HLA-A*02:03 (setting [1]) and 5.72 with HLA-A*02:06 (setting [1]).
In the same order, the values of LAELLEMKYA are 6.00, 5.98 and 5.61.
LATLNTLIT: the pKd with HLA-A*02:02 (setting [1]) was 5.94; in the experiment with HLA-A*02:03 (setting [1]), 5.81; in the experiment with HLA-A*02:06 (setting [1]), 4.85.
The matching figures for LIQYRQQLEL: at most 4.48, 4.71 and at most 4.28.
In the case of LLKNDVPLA, the pKd with HLA-A*02:03 (source organism: Dengue virus 1 Brazil/97-11/1997) was 8.08.
In the case of LLLGVGLAMA, the pKd in the experiment with HLA-A*02:03 (setting [4]) is 8.63; with HLA-A*02:06 (setting [4]), 8.42.
On to LLVAHYAII, for which the pKd with HLA-A*02:03 (source organism: Dengue virus 2 Jamaica/1409/1983) was 7.56.
For the sequence LMSDNPKAST, the figures for the pKd in the experiment with HLA-A*02:02 (setting [1]), with HLA-A*02:03 (setting [1]) and with HLA-A*02:06 (setting [1]) were 5.05, 6.03 and at most 4.32, respectively.
In the same order, the values of LVITYCLVT are 5.16, 5.49 and 5.10.
MMVILPDKI: the figures for the negative-log Kd (pKd) with HLA-A*02:02 (setting [1]), in the experiment with HLA-A*02:03 (setting [1]) and with HLA-A*02:06 (setting [1]) were 7.16, 7.79 and 6.04, respectively.
The matching figures for NITTLLNETA: 6.66, 6.97 and 5.95.
